Results: article PMC7811047

Target: N-terminal protein A (PA)-Renilla luciferase (RL)-ARFRP1 fusion protein (UniProt Q13795)
Test: co-IP

UniProt Q13795, sequence (Q13795 whole entry, the tested form may be a part): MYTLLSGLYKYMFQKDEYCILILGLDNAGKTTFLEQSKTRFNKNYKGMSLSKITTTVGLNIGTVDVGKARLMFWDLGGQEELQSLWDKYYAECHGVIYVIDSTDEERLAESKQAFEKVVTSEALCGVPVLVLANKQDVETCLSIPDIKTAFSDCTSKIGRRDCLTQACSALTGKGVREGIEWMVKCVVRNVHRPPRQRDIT

fold luciferase activity over control: 2.8 fold
Substance: V5-firefly luciferase (FL)-tagged VPS35 (from UniProt Q96QK1 1-796) (natural protein)
